Our source for the Kd, dH and stoichiometry N values is paper doi:10.1101/2021.05.23.445348.

This test deals with SARS-CoV-2 spike receptor binding domain, wild type (SARS-CoV-2) (UniProt P0DTC2). The experiment in a line: ITC. (In general: In ITC the heat of successive injections is recorded.)

In general, Kd refers to the constant that tells how readily two partners part at equilibrium. A lower Kd goes with tighter binding. The term stoichiometry N denotes the number of molecules, sites or subunits per partner or assembly. In the case of “CC12.1 single chain variable fragment (scFv)”, the Kd amounted to 28 nM, the dH stood at 4.8 kcal/mol and the stoichiometry N stood at 1.
